# Data taken from FireProtDB (doi:10.1021/bi991422s).
# B1: Guanyl-specific ribonuclease T1, P00651 (parent)
# chain: MMYSKLLTLTTLLLPTALALPSLVERACDYTCGSNCYSSSDVSTAQAAGYQLHEDGETVGSNSYPHKYNNYEGFDFSVSSPYYEWPILSSGDVYSGGSPGADRVVFNENNQLAGVITHTGASGNNFVECT
# Variants of: B1
# Settings: Aspergillus oryzae (strain ATCC 42149 / RIB 40); pH 7; 15 °C; Thermal; DSC; MOPS 30 mM; reversible: yes; structure 1RN1; whole UniProt chain shown
Variant,ddG of mutation (higher = less stable) [kJ/mol],heat capacity change of unfolding [kcal/mol/K]
D102S,13,1.39
D102A,15.9,1.39

# Same assay, conditions: Aspergillus oryzae (strain ATCC 42149 / RIB 40); pH 7; Thermal; DSC; MOPS 30 mM; reversible: yes; structure 1RN1; whole UniProt chain shown
Variant,Tm [°C],"change of melting temperature, mutant - wild type (higher = more stable) [°C]",unfolding enthalpy (calorimetric) [kJ/mol]
D102S,37.2,-13.6,325
D102N,37,-13.8,318
D102A,35.6,-15.2,297

# Same assay, conditions: Aspergillus oryzae (strain ATCC 42149 / RIB 40); pH 7; 5 °C; Urea; DSC; MOPS 30 mM; reversible: yes; structure 1RN1; whole UniProt chain shown
Variant,ddG of mutation (higher = less stable) [kJ/mol],denaturant m value [kcal/mol/M],denaturant midpoint (higher = more stable) [M],unfolding free energy [kJ/mol]
D102N,11.6,1.53,3.63,23.2

# Same assay, conditions: Aspergillus oryzae (strain ATCC 42149 / RIB 40); pH 7; 10 °C; Urea; DSC; MOPS 30 mM; reversible: yes; structure 1RN1; whole UniProt chain shown
Variant,ddG of mutation (higher = less stable) [kJ/mol],denaturant m value [kcal/mol/M],denaturant midpoint (higher = more stable) [M],unfolding free energy [kJ/mol]
D102N,12,1.52,3.3,20.9

# Same assay, conditions: Aspergillus oryzae (strain ATCC 42149 / RIB 40); pH 7; 15 °C; Urea; DSC; MOPS 30 mM; reversible: yes; structure 1RN1; whole UniProt chain shown
Variant,ddG of mutation (higher = less stable) [kJ/mol],denaturant m value [kcal/mol/M],denaturant midpoint (higher = more stable) [M],unfolding free energy [kJ/mol]
D102N,12.9,1.41,3.01,17.8
D102A,15.5,1.42,2.57,

# Same assay, conditions: Aspergillus oryzae (strain ATCC 42149 / RIB 40); pH 7; 20 °C; Urea; DSC; MOPS 30 mM; reversible: yes; structure 1RN1; whole UniProt chain shown
Variant,ddG of mutation (higher = less stable) [kJ/mol],denaturant m value [kcal/mol/M],denaturant midpoint (higher = more stable) [M],unfolding free energy [kJ/mol]
D102N,13.3,1.48,2.39,14.8

# Same assay, conditions: Aspergillus oryzae (strain ATCC 42149 / RIB 40); pH 7; 25 °C; Urea; DSC; MOPS 30 mM; reversible: yes; structure 1RN1; whole UniProt chain shown
Variant,ddG of mutation (higher = less stable) [kJ/mol],denaturant m value [kcal/mol/M],denaturant midpoint (higher = more stable) [M],unfolding free energy [kJ/mol]
D102N,14.7,1.44,1.8,10.8
